B1: protein S, purified, P07225 42-676 (natural protein)
chain: ANSLLEETKQGNLERECIEELCNKEEAREVFENDPETDYFYPKYLVCLRSFQTGLFTAARQSTNAYPDLRSCVNAIPDQCSPLPCNEDGYMSCKDGKASFTCTCKPGWQGEKCEFDINECKDPSNINGGCSQICDNTPGSYHCSCKNGFVMLSNKKDCKDVDECSLKPSICGTAVCKNIPGDFECECPEGYRYNLKSKSCEDIDECSENMCAQLCVNYPGGYTCYCDGKKGFKLAQDQKSCEVVSVCLPLNLDTKYELLYLAEQFAGVVLYLKFRLPEISRFSAEFDFRTYDSEGVILYAESIDHSAWLLIALRGGKIEVQLKNEHTSKITTGGDVINNGLWNMVSVEELEHSISIKIAKEAVMDINKPGPLFKPENGLLETKVYFAGFPRKVESELIKPINPRLDGCIRSWNLMKQGASGIKEIIQEKQNKHCLVTVEKGSYYPGSGIAQFHIDYNNVSSAEGWHVNVTLNIRPSTGTGVMLALVSGNNTVPFAVSLVDSTSEKSQDILLSVENTVIYRIQALSLCSDQQSHLEFRVNRNNLELSTPLKIETISHEDLQRQLAVLDKAMKAKVATYLGGLPDVPFSATPVNAFYNGCMEVNINGVQLDLDEAISKHNDIRAHSCPSVWKKTKNS
B2: biotinylated protein S (natural protein)
chain: B1 chain
modifications: biotin (biotinylated, sites not stated)

Legend:
[1] = molecular target: T1, protein S, purified, P07225; assay: native gel or EMSA; details: remark: other sources report otherwise
T1 chain: B1 chain

[2] = molecular target: von Willebrand factor of plasma (human (endogenous in plasma), UniProt P04275 764-2813); assay: ELISA

Row | Binder | stoichiometry N [1] | fold change of the apparent interaction with MerTK against without MerTK [2] [fold]
1 | B1 | 2 | 
2 | B2 |  | ~2

Reference: paper PMC12162048 (Blood Vessels, Thrombosis & Hemostasis, 2024)
